Laboratory results: publication PMC11208920, “The binding of LARP6 and DNAAF6 in biomolecular condensates influences ciliogenesis of multiciliated cells”
Positions count from the first letter of the chain named.

Assays:
[1] = target: T1, rLARP6 (recombinant human LARP6, LAM+RRM only) (Homo sapiens, UniProt Q9BRS8 73-303); assay: EMSA; 5 mM Mg2+; monomer and dimer complexes; 10 mM Tris pH 7.5, 100 mM KCl, 5 mM MgCl2, room temperature, 10 min; 6% native gel, SYBR Gold; details: protein: recombinant
T1 sequence: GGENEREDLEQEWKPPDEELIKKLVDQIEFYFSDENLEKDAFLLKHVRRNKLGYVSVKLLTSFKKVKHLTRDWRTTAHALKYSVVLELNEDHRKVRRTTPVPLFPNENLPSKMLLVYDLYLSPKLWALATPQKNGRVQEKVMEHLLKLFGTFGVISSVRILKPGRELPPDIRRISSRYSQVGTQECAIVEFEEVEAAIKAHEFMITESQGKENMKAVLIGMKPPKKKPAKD

[2] = target: T1, rLARP6 (recombinant human LARP6, …); assay: EMSA; 5 mM Mg2+; 10 mM Tris pH 7.5, 100 mM KCl, 5 mM MgCl2, room temperature, 10 min; 6% native gel, SYBR Gold; details: protein: recombinant; label: SYBR Gold stain

B1: xTUBA1CL RNA probe (ssRNA)
RNA: GAGGGAGAAGAAUAUUAAAUAAUAAAUCAAAAGCUUCACAAUAAUACCUGCAGAUUUUGUUUGAAAUAAUAAUUUUGAAUAAAUACGUUUUUAUCUUGUA
B1: binds ([1]; label: SYBR Gold stain (Results text says radiolabeled)).

B2: hCOL1A2 WT RNA (structured_RNA)
RNA: CCACAAAGAGUCUACAUGUCUAGGGUCUAGACAUGUUCAGCUUUGUGG
B2: binds ([1]; label: SYBR Gold stain).

B3: hCOL1A2 MUT RNA (structured_RNA)
RNA: B2 RNA with A9U, U11A, C38A, A39U, G40U
B3: no binding [2].
